Literature values as cited in article doi:10.1101/2025.05.21.655333.

Biological target: Lys287 (UniProt position 287, GGQGLKILIHV)
Assay: kinetics
Details: The kcat/Km profile reports on free enzyme and free substrate

## L-6-hydroxynicotine oxidase (Pyridine-LHNO) (Paenarthrobacter nicotinovorans)
  pKa: 9.7
